According to publication PMC2988878 (Nature structural & molecular biology, 2010):
Where no end group is shown, it is not given here.

B1: Full-length prokaryotic ubiquitin-like protein, Pup1-64-GGQ with a C-terminal non-cleavable His6-tag (natural protein)
chain: MAQEQTKRGGGGGDDDDIAGSTAAGQERREKLTEETDDLLDEIDDVLEENAEDFVRAYVQKGGQ
B2: Mpa coiled-coil domain, residues 46-96 (Mpa46-96) (domain or fragment)
chain: SHAPTRSARDIHQLEARIDSLAARNSKLMETLKEARQQLLALREEVDRLGQ

Columns and labels:
Test in all cases: […]
[1] = target: T1, Mpa residues 1-96 (Mpa1-96) (Mycobacterium tuberculosis, UniProt P9WQN5 1-96)
T1 sequence: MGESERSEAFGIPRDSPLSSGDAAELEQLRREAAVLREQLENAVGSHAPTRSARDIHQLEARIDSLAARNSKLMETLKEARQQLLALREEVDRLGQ

[2] = target: B1
[3] = target: B2

Binder: B1
- binding result [1]: binds

Binder: B2
- binding result [2]: binds

Binder: {His6‑tag}-STAAGQERREKLTEETDDLLDEIDDVLEENAEDFVRAYVQKGGE (domain or fragment, not fully specified) [N-terminal truncated prokaryotic ubiquitin-like protein, Pup21-64-GGE with an N-terminal His6-tag]
- binding result [3]: binds
